Source: the supplement of paper PMC5998384

Columns and labels:
[1] = tested on: HeLa Kyoto; assay: solubility change mitosis vs G1/S (difference of NP-40 vs SDS log2 ratios) (log2 ratio difference); higher = more soluble in mitosis
[2] = tested on: HeLa Kyoto; assay: melting temperature (median over replicates), in situ; higher = more thermally stable
[3] = tested on: HeLa Kyoto; assay: thermal stability score vs G1/S (z-score of summed log2 fold changes over temperatures); higher = more thermally stable than in G1/S
[4] = tested on: HeLa Kyoto; assay: solubility in G1/S (NP-40 vs SDS abundance) (log2 ratio); higher = more soluble; settings: cell cycle stage: G1/S
[5] = cell cycle stage: early G1 (4.5 h after nocodazole release)
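Throughout, for melting temperature (median over replicates), in situ: HeLa Kyoto cells synchronized by double thymidine or nocodazole block, proteins quantified by TMT10plex mass spectrometry, three independent biological replicates.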
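Throughout, for solubility change mitosis vs G1/S (difference of NP-40 vs SDS log2 ratios): synchronized HeLa Kyoto cells (double thymidine block for G1/S, nocodazole release for mitosis), protein amounts in NP-40 versus SDS lysates quantified by mass spectrometry, three biological replicates.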
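Throughout, for solubility in G1/S (NP-40 vs SDS abundance): HeLa Kyoto cells arrested at G1/S by double thymidine block, proteins quantified by TMT10plex mass spectrometry in mild NP-40 versus SDS extracts, three biological replicates.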
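Throughout, for thermal stability score vs G1/S (z-score of summed log2 fold changes over temperatures): synchronized HeLa Kyoto cells, proteins quantified by TMT10plex mass spectrometry, three biological replicates, mitosis taken 0.5 h after nocodazole release, G1/S directly after double thymidine block.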

MSSLAVRDPAMDRSLRSVFVGNIPYEATEEQLKDIFSEVGSVVSFRLVYDRETGKPKGYGFCEYQDQETALSAMRNLNGREFSGRALRVDNAASEKNKEELKSLGPAAPIIDSPYGDPIDPEDAPESITRAVASLPPEQMFELMKQMKLCVQNSHQEARNMLLQNPQLAYALLQAQVVMRIMDPEIALKILHRKIHVTPLIPGKSQSVSVSGPGPGPGPGLCPGPNVLLNQQNPPAPQPQHLARRPVKDIPPLMQTPIQGGIPAPGPIPAAVPGAGPGSLTPGGAMQPQLGMPGVGPVPLERGQVQMSDPRAPIPRGPVTPGGLPPRGLLGDAPNDPRGGTLLSVTGEVEPRGYLGPPHQGPPMHHASGHDTRGPSSHEMRGGPLGDPRLLIGEPRGPMIDQRGLPMDGRGGRDSRAMETRAMETEVLETRVMERRGMETCAMETRGMEARGMDARGLEMRGPVPSSRGPMTGGIQGPGPINIGAGGPPQGPRQVPGISGVGNPGAGMQGTGIQGTGMQGAGIQGGGMQGAGIQGVSIQGGGIQGGGIQGASKQGGSQPSSFSPGQSQVTPQDQEKAALIMQVLQLTADQIAMLPPEQRQSILILKEQIQKSTGAS [CSTF2T]
solubility change mitosis (log2) [1]: 0.114 | melting temperature ([2]; cell cycle stage: G1/S): 52.6 °C | melting temperature ([2]; cell cycle stage: mitosis): 51.9 °C | thermal stability score [3, 5]: -0.131 | thermal stability score ([3]; cell cycle stage: mitosis): 0.0128 | solubility in G1/S (log2) [4]: -0.00517

MSSNCTSTTAVAVAPLSASKTKTKKKHFVCQKVKLFRASEPILSVLMWGVNHTINELSNVPVPVMLMPDDFKAYSKIKVDNHLFNKENLPSRFKFKEYCPMVFRNLRERFGIDDQDYQNSVTRSAPINSDSQGRCGTRFLTTYDRRFVIKTVSSEDVAEMHNILKKYHQFIVECHGNTLLPQFLGMYRLTVDGVETYMVVTRNVFSHRLTVHRKYDLKGSTVAREASDKEKAKDLPTFKDNDFLNEGQKLHVGEESKKNFLEKLKRDVEFLAQLKIMDYSLLVGIHDVDRAEQEEMEVEERAEDEECENDGVGGNLLCSYGTPPDSPGNLLSFPRFFGPGEFDPSVDVYAMKSHESSPKKEVYFMAIIDILTPYDTKKKAAHAAKTVKHGAGAEISTVNPEQYSKRFNEFMSNILT [PIP4K2B]
solubility change mitosis (log2) [1]: -0.163 | melting temperature ([2]; cell cycle stage: G1/S): 50.1 °C | melting temperature ([2]; cell cycle stage: mitosis): 49 °C | thermal stability score [3, 5]: 0.758 | thermal stability score ([3]; cell cycle stage: mitosis): -0.395 | solubility in G1/S (log2) [4]: 0.335

MSSPSPGKRRMDTDVVKLIESKHEVTILGGLNEFVVKFYGPQGTPYEGGVWKVRVDLPDKYPFKSPSIGFMNKIFHPNIDEASGTVCLDVINQTWTALYDLTNIFESFLPQLLAYPNPIDPLNGDAAAMYLHRPEEYKQKIKEYIQKYATEEALKEQEEGTGDSSSESSMSDFSEDEAQDMEL [UBE2H]
solubility change mitosis (log2) [1]: -0.126 | melting temperature ([2]; cell cycle stage: G1/S): 52 °C | melting temperature ([2]; cell cycle stage: mitosis): 52.4 °C | thermal stability score [3, 5]: 0.268 | thermal stability score ([3]; cell cycle stage: mitosis): 0.877 | solubility in G1/S (log2) [4]: -0.0237

MSSQSHPDGLSGRDQPVELLNPARVNHMPSTVDVATALPLQVAPSAVPMDLRLDHQFSLPVAEPALREQQLQQELLALKQKQQIQRQILIAEFQRQHEQLSRQHEAQLHEHIKQQQEMLAMKHQQELLEHQRKLERHRQEQELEKQHREQKLQQLKNKEKGKESAVASTEVKMKLQEFVLNKKKALAHRNLNHCISSDPRYWYGKTQHSSLDQSSPPQSGVSTSYNHPVLGMYDAKDDFPLRKTASEPNLKLRSRLKQKVAERRSSPLLRRKDGPVVTALKKRPLDVTDSACSSAPGSGPSSPNNSSGSVSAENGIAPAVPSIPAETSLAHRLVAREGSAAPLPLYTSPSLPNITLGLPATGPSAGTAGQQDAERLTLPALQQRLSLFPGTHLTPYLSTSPLERDGGAAHSPLLQHMVLLEQPPAQAPLVTGLGALPLHAQSLVGADRVSPSIHKLRQHRPLGRTQSAPLPQNAQALQHLVIQQQHQQFLEKHKQQFQQQQLQMNKIIPKPSEPARQPESHPEETEEELREHQALLDEPYLDRLPGQKEAHAQAGVQVKQEPIESDEEEAEPPREVEPGQRQPSEQELLFRQQALLLEQQRIHQLRNYQASMEAAGIPVSFGGHRPLSRAQSSPASATFPVSVQEPPTKPRFTTGLVYDTLMLKHQCTCGSSSSHPEHAGRIQSIWSRLQETGLRGKCECIRGRKATLEELQTVHSEAHTLLYGTNPLNRQKLDSKKLLGSLASVFVRLPCGGVGVDSDTIWNEVHSAGAARLAVGCVVELVFKVATGELKNGFAVVRPPGHHAEESTPMGFCYFNSVAVAAKLLQQRLSVSKILIVDWDVHHGNGTQQAFYSDPSVLYMSLHRYDDGNFFPGSGAPDEVGTGPGVGFNVNMAFTGGLDPPMGDAEYLAAFRTVVMPIASEFAPDVVLVSSGFDAVEGHPTPLGGYNLSARCFGYLTKQLMGLAGGRIVLALEGGHDLTAICDASEACVSALLGNELDPLPEKVLQQRPNANAVRSMEKVMEIHSKYWRCLQRTTSTAGRSLIEAQTCENEEAETVTAMASLSVGVKPAEKRPDEEPMEEEPPL [HDAC4]
solubility change mitosis (log2) [1]: -0.072 | melting temperature ([2]; cell cycle stage: G1/S): 53.3 °C | melting temperature ([2]; cell cycle stage: mitosis): 52.9 °C | thermal stability score [3, 5]: -0.241 | thermal stability score ([3]; cell cycle stage: mitosis): 0.236 | solubility in G1/S (log2) [4]: 0.188
